# Experimental data taken from patent US20120178124A1, “STEROL SIDE CHAIN-CLEAVING ENZYME PROTEIN AND USE THEREOF” (MITSUBISHI CHEMICAL CORPORATION, priority 2009, published 2012).
# How the values were obtained:
# Type in all cases: biochemical
# [1] = Analysis of the optimum pH, conversion of 4-cholesten-3-one by cell-free extract; details: for Specific activity: 4-cholesten-3-one to progesterone, 30° C., 14 hours
# Description: (§1) To 20 ml of the cell suspension prepared in (2) above, 680 μl of X10 Bug Buster (Novagen), 20 μl of Benzonase (Novagen), and 2 ml of 40 mg/ml lysozyme were added, and the obtained mixture was then shaken at 30° C. for 30 minutes to disintegrate the cells. Thereafter, the reaction solution was centrifuged to obtain the cell-free extract. The obtained, approximately 20 ml of cell-free extract was dialyzed against 1 L of Buffer R (20 mM KPB pH 7.4, 20% glycerol) two times, and the deposited precipitate was then removed by centrifugation. The cell-free extract obtained as a supernatant herein was used in the subsequent experiments.
# Using the cell-free extract prepared in (3) above, conversion of 4-cholesten-3-one was carried out at various pH values. The reaction solution was prepared, such that 1 ml of Buffer R comprised […] CYP204A1 or […] CYPSS204A, 64 μg/ml spinach-derived ferredoxin, a 0.1 U/ml spinach-derived ferredoxin reductase protein, 3 U/ml glucose dehydrogenase, 60 mM glucose, 50 μg/ml 4-cholesten-3-one, 2 mM NADH, and 2 mM NADPH. Then, 562 μl of 200 mM Buffer having various pH values was added to 1 ml of the reaction solution, so as to adjust the pH of the reaction solution. The reaction was initiated by the addition of NADH and NADPH, and it was carried out at 200 rpm at 30° C. for 14 hours. Thereafter, 1.5 ml of ethyl acetate was added to the reaction solution to terminate the reaction, and extraction was carried out. Then, extraction was carried out again with 0.75 ml of ethyl acetate. The obtained ethyl acetate phase was solidified using evaporator, and the residue was then dissolved in 200.d of methanol. Thereafter, progesterone was detected by HPLC analysis. The enzyme protein activity for conversion of 4-cholesten-3-one to progesterone under various pH conditions is shown in Table 1. The enzyme protein activity was indicated by the amount (g) of progesterone generated per hour per mol of P450.
# [2] = Analysis of the optimum temperature, conversion of 4-cholesten-3-one by cell-free extract; details: Tris-HCl pH 7.5, 4 hours, 4-cholesten-3-one to progesterone
# Description: as §1
# Using the cell-free extract prepared in (3) above, conversion of 4-cholesten-3-one was carried out at […]. The reaction solution was prepared, such that 1 ml of the buffer comprised 215 pmol/ml CYP204A1 or 391 pmol/ml CYPSS, 64 μg/ml spinach-derived ferredoxin, 0.1 U/ml spinach-derived ferredoxin reductase protein, 3 U/ml glucose dehydrogenase, 60 mM glucose, 50 μg/ml 4-cholesten-3-one, 2 mM NADH, and 2 mM NADPH. Tris-HCl was added to the reaction solution so as to adjust it to pH 7.5. The reaction was initiated by addition of NADH and NADPH, and it was carried out at 200 rpm for 4 hours, under temperature conditions of 10° C., 15° C., 20° C., 25° C., or 30° C. Thereafter, 1.5 ml of ethyl acetate was added to the reaction solution to terminate the reaction, and extraction was carried out. Then, extraction was carried out again with 0.75 ml of ethyl acetate. The obtained ethyl acetate phase was solidified using evaporator, and the residue was then dissolved in 200 μl of methanol. Thereafter, progesterone was detected by HPLC analysis. The enzyme protein activity for conversion of 4-cholesten-3-one to progesterone under various temperature conditions is shown in Table 1.
# [3] = pH stability test of cell-free extract; details: for Relative activity: 140 hr versus 0 hr, 6° C.; for Activity 0 hr: immediately after mixing, reaction 15° C., 4 hours, pH 7.5
# Description: as §1
# 0.5 ml of the cell-free extract prepared in (3) above was mixed with 0.5 ml of 50 mM buffer having various pH values, pH was then measured, and the mixture was then conserved at 6° C. for 140 hours. […] Using the prepared cell-free extracts having various pH values, conversion of 4-cholesten-3-one was carried out. The reaction was carried out, immediately after the enzyme protein solution was mixed with buffers having various pH values and after the mixed solution was conserved for 140 hours, so as to examine the stability. The reaction solution was prepared, such that 1 ml of the buffer comprised an enzyme protein solution of CYP204A1 or CYPSS having various pH values, 64 μg/ml spinach-derived ferredoxin, 0.1 U/ml spinach-derived ferredoxin reductase protein, 3 U/ml glucose dehydrogenase, 60 mM glucose, 50 μg/ml 4-cholesten-3-one, 2 mM NADH, and 2 mM NADPH. To the reaction solution, 562 μl of 200 mM Tris-HCl was added, so as to adjust the reaction solution to pH 7.5. It was confirmed that the reaction solution maintained pH 7.5, even though enzyme protein solutions having various pH values were added thereto. The reaction was initiated by addition of NADH and NADPH, and it was carried out at 200 rpm at 15° C. for 4 hours. Thereafter, 1.5 ml of ethyl acetate was added to the reaction solution to terminate the reaction, and extraction was carried out. Then, extraction was carried out again with 0.75 ml of ethyl acetate. The obtained ethyl acetate phase was solidified using an evaporator, and the residue was then dissolved in 200 μl of methanol. Thereafter, progesterone was detected by HPLC analysis.
# [4] = Kinetics analysis of CYP204A1 and CYPSS; details: 4-cholesten-3-one 100 μg/ml (so in the source)
molecule,measurement,setting,value
"CYP204A1: P450scc from Novosphingobium aromaticivorans ATCC 700278, amino acid sequence SEQ ID NO: 23 (protein, Novosphingobium aromaticivorans) MARAATAAGNGLPLLDGGVPLLGHLAQFFRDPVSVLKRGYRSKGRLFAMNFMGQRMNVMLGPEHNRFFFEETDKLLSIRESMPFFLKMFSPEFYSFAEMDEYLRQRSIIMPRFKAASMKQYVPVMVEESLNLVERLGEEGEFDLIPTLGPVVMDIAAHSFMGREFHEKLGHEFFELFRDFSGGMEFVLPLWLPTPKMVKSQRAKRKLHAILQSWIDKRRAAPLDPPDFFQTMIETKYPDGRPVPDEIIRHLILLLVWAGHETTAGQVSWALADLLQNPDYQKVLRGEISSLLGGSDGRDLGWEQAVAMEKMDLALRETERLHPVAYMLSRKARADIERDGYVIRKGEFVLLAPSVSHRMEETFRNPDAYDPERFNPANPDAQIESNSLIGFGGGVHRCAGVNFARMEMKVLVAILLQNFDMELMDEVRPIAGASTYWPAQPCRVRYRRRKLDGSEAGADMAALARAAGCPAHT",Specific activity,[1]; KPB pH 6.2,0 g/h/mol
same,Specific activity,[1]; KPB pH 6.7,0 g/h/mol
same,Specific activity,[1]; KPB pH 7.1,0 g/h/mol
same,Specific activity,[1]; KPB pH 7.4,0 g/h/mol
same,Specific activity,[1]; KPB pH 7.9,0 g/h/mol
same,Specific activity,[1]; TES pH 6.6,0 g/h/mol
same,Specific activity,[1]; TES pH 6.8,0 g/h/mol
same,Specific activity,[1]; TES pH 7.3,39 g/h/mol
same,Specific activity,[1]; TES pH 7.5,97 g/h/mol
same,Specific activity,[1]; TES pH 8.0,82 g/h/mol
same,Specific activity,[1]; Tris-HCl pH 7.5,207 g/h/mol
same,Specific activity,[1]; Tris-HCl pH 8.2,114 g/h/mol
same,Specific activity,[1]; Tris-HCl pH 8.7,0 g/h/mol
same,optimum pH (pH of highest activity),[1]; conversion of 4-cholesten-3-one to progesterone,7.5
same,Specific activity,[2]; 10° C.,507 g/h/mol
same,Specific activity,[2]; 15° C.,698 g/h/mol
same,Specific activity,[2]; 20° C.,719 g/h/mol
same,Specific activity,[2]; 25° C.,550 g/h/mol
same,Specific activity,[2]; 30° C.,285 g/h/mol
same,Relative activity,[3]; AcB pH 6.0,24%
same,Activity 140 hr,"[3]; AcB pH 6.0, conserved at 6° C. for 140 hours",0.5 µg/mL
same,Activity 0 hr,[3]; AcB pH 6.0,2.1 µg/mL
same,Relative activity,[3]; KPB pH 6.7,53%
same,Activity 140 hr,"[3]; KPB pH 6.7, conserved at 6° C. for 140 hours",1 µg/mL
same,Activity 0 hr,[3]; KPB pH 6.7,1.9 µg/mL
same,Relative activity,[3]; KPB pH 7.2,65%
same,Activity 140 hr,"[3]; KPB pH 7.2, conserved at 6° C. for 140 hours",1.3 µg/mL
same,Activity 0 hr,[3]; KPB pH 7.2,2 µg/mL
same,Relative activity,[3]; KPB pH 7.6,70%
same,Activity 140 hr,"[3]; KPB pH 7.6, conserved at 6° C. for 140 hours",1.4 µg/mL
same,Activity 0 hr,[3]; KPB pH 7.6,2 µg/mL
same,pH at which most stable,"[3]; KPB, conserved at 6° C. for 140 hours",7.6
same,Relative activity,[3]; TES pH 7.5,68%
same,Activity 140 hr,"[3]; TES pH 7.5, conserved at 6° C. for 140 hours",1.5 µg/mL
same,Activity 0 hr,[3]; TES pH 7.5,2.2 µg/mL
same,Relative activity,[3]; Tris pH 7.4,62%
same,Activity 140 hr,"[3]; Tris pH 7.4, conserved at 6° C. for 140 hours",1.3 µg/mL
same,Activity 0 hr,[3]; Tris pH 7.4,2.1 µg/mL
same,Relative activity,[3]; Tris pH 8.1,50%
same,Activity 140 hr,"[3]; Tris pH 8.1, conserved at 6° C. for 140 hours",1 µg/mL
same,Activity 0 hr,[3]; Tris pH 8.1,2 µg/mL
same,Relative activity,[3]; Tris pH 8.9,35%
same,Activity 140 hr,"[3]; Tris pH 8.9, conserved at 6° C. for 140 hours",0.7 µg/mL
same,Activity 0 hr,[3]; Tris pH 8.9,2 µg/mL
same,enzyme protein activity in comparison with that at 10 μM 4-cholesten-3-one,[4],67%
